Data as given in paper PMC12669046.

Biological target: T1, MS2 coat protein (fluorescently labelled) (MS2 virus) (UniProt P03612)
T1 sequence: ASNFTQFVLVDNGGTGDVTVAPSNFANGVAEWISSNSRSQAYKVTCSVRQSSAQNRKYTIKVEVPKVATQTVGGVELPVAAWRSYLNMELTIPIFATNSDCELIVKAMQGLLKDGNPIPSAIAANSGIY
Test: RNA-MaP
Details: RNA-MaP on MiSeq chip: MS2 protein 0.7-1,500 nM, incubation 0.8-1.5 h (lowest concentrations) to 10-20 min (highest), buffer and temperature per ref. 14, not …

Row | Sequence | binding signal (200 nM input RNA S1 (on state), scale: fold) | binding signal (fold (qARLB, off Kd / on Kd))
1 | AGUCCACGCUGACGUGGACAAAAGCAUGUACAUGAGGAUCACCCAUGUCAUGUACAAGCUUUUUGCUCGUCUUAAAA | 110 | 
2 | CCGAAAACGGGAACCUUAUUCUUUAUGCAUGUUCAGGAAACUGAGCAUGCAAACAUGAGGAUCACCCAUGUGUUGUGGGAUCAGC [6348262 C85 G11 Eli Fisker mod (ratio sensor, top R2)] |  | 11
3 | GAUUACGAGAGUGUUAUUCUUUGGAGUGGGACAUGAGGAUCACCCAUGUAAAUGUACAUGUUAGCUGCUUAGCAGUUGACAUGAU [6248647 U62 jandersonlee mod (ratio sensor, top R3)] |  | 34
